Data published in patent publication US20240343815A1 (CHIA TAI TIANQING PHARMACEUTICAL GROUP, published 2024).
Positions count from the first letter of the chain named.

B1: Mouse C2C1A1A1 (antibody, V domains shown)
VH: EVQLVESGGGLVQPGGSLKLSCAASGFTFSTYGMSWVRQTPDKRLELVATINSNGGSTSYPDSVKGRFTISRDNAKNTLYLQMSSLKSEDTAMFYCARFFRFRNAMDYWGQGTSVTVSS
VL: DIQMTQSPASLSASVGETVTITCRTSENIYSYLAWYQQKQGKSPQFLVYNAKTLAEGVPSRFSGSGSGTQFSLNINSLQSEDFGSYYCQHYYGPPTWTFGGGTKLEIK
B2: Chimeric C2C1A1A1 (antibody, human IgG4 S228P, kappa, V domains shown)
VH: B1 VH
VL: DIQMTQSPASLSASVGETVTITCRTSENIYSYLAWYQQKQGKSPQFLVYNAKTLAEGVPSRFSGSGSGTQFSLNINSLQSEDFGSYYCQHYYGPPTWTFGGGTKLEIKR
notes: Mouse variable regions on human IgG4 / kappa constant regions; also called chimeric antibody; Supernatant containing chimeric C2C1A1A1
B3: huC2C1A1A1-V14 (antibody, human IgG4 S228P, kappa, V domains shown)
VH: EVQLVESGGGLVQPGGSLRLSCAASGFTFSTYGMSWVRQAPGKGLVWVATINSNGGSTSYPDSVKGRFTISRDNAKNTLYLQMNSLRAEDTAVYYCARFFRFRNAMDYWGQGTLVTVSS
VL: DIQMTQSPSSLSASVGQRVTITCRTSENIYSYLAWYQQKQGKPPRFLIYNAKTLAEGVPSRFSGSGSGTEFTLTITSLQAEDFGVYYCQHYYGPPTWTFGPGTKLEIKR
notes: Humanized IgG4/kappa
B4: huC2C1A1A1-V15 (antibody, human IgG4 S228P, kappa, V domains shown)
VH: B3 VH
VL: DIQMTQSPSSLSASVGDRVTITCRTSENIYSYLAWYQQKPGKAPKFLVYNAKTLAEGVPSRFSGSGSGTDFTLTISSLQPEDFATYYCQHYYGPPTWTFGQGTKVEIKR
notes: Humanized IgG4/kappa
B5: huC2C1A1A1-V6 (antibody, human IgG4 S228P, kappa, V domains shown)
VH: B3 VH with A40S, G42D, G44R, V46E, A49S, N84R
VL: B3 VL
notes: Humanized IgG4/kappa
B6: huC2C1A1A1-V4 (antibody, human IgG4 S228P, kappa, V domains shown)
VH: B3 VH with A49S
VL: B4 VL with V48I
notes: Humanized IgG4/kappa
B7: huC2C1A1A1-V10 (antibody, human IgG4 S228P, kappa, V domains shown)
VH: B3 VH with W47L
VL: B3 VL
notes: Humanized IgG4/kappa
B8: huC2C1A1A1-V2 (antibody, human IgG4 S228P, kappa, V domains shown)
VH: B3 VH with A49S
VL: B3 VL
notes: Humanized IgG4/kappa
B9: huC2C1A1A1-V8 (antibody, human IgG4 S228P, kappa, V domains shown)
VH: B3 VH with A40S, G42D, G44R, V46E, A49S, N84R
VL: B4 VL with V48I
notes: Humanized IgG4/kappa
B10: huC2C1A1A1-V1 (antibody, human IgG4 S228P, kappa, V domains shown)
VH: B3 VH with A49S
VL: B4 VL with F46L, V48I
notes: Humanized IgG4/kappa
B11: huC2C1A1A1-V13 (antibody, human IgG4 S228P, kappa, V domains shown)
VH: B3 VH
VL: B4 VL with F46L, V48I
notes: Humanized IgG4/kappa
B12: huC2C1A1A1-V16 (antibody, human IgG4 S228P, kappa, V domains shown)
VH: B3 VH
VL: B4 VL with V48I
notes: Humanized IgG4/kappa
B13: huC2C1A1A1-V12 (antibody, human IgG4 S228P, kappa, V domains shown)
VH: B3 VH with W47L
VL: B4 VL with V48I
notes: Humanized IgG4/kappa
B14: huC2C1A1A1-V5 (antibody, human IgG4 S228P, kappa, V domains shown)
VH: B3 VH with A40S, G42D, G44R, V46E, A49S, N84R
VL: B4 VL with F46L, V48I
notes: Humanized IgG4/kappa
B15: huC2C1A1A1-V7 (antibody, human IgG4 S228P, kappa, V domains shown)
VH: B3 VH with A40S, G42D, G44R, V46E, A49S, N84R
VL: B4 VL
notes: Humanized IgG4/kappa
B16: huC2C1A1A1-V11 (antibody, human IgG4 S228P, kappa, V domains shown)
VH: B3 VH with W47L
VL: B4 VL
notes: Humanized IgG4/kappa
B17: huC2C1A1A1-V9 (antibody, human IgG4 S228P, kappa, V domains shown)
VH: B3 VH with W47L
VL: B4 VL with F46L, V48I
notes: Humanized IgG4/kappa
B18: huC2C1A1A1-V3 (antibody, human IgG4 S228P, kappa, V domains shown)
VH: B3 VH with A49S
VL: B4 VL
notes: Humanized IgG4/kappa

Each binder was assayed against T1, human IL4Rα on HEK293T-IL4Rα-STAT6-STAT6LUC-LB2 cells (human, UniProt P24394 26-825) (assay: cell-based or functional assay).

Binder	Inhibition of IL4-induced STAT6 phosphorylation (IC50, nM)	Inhibition of IL13-induced STAT6 phosphorylation (IC50, nM)
B1	0.19 nM	0.27 nM
B2	0.27 nM	0.56 nM

Biological target: T1, human IL4Rα on …
Experiment: cell-based or functional assay
Remark: another data set of the same source

Binder	Inhibition of IL4-induced STAT6 phosphorylation (IC50, nM)	Inhibition of IL13-induced STAT6 phosphorylation (IC50, nM)
B2	0.26 nM	0.39 nM
B3	0.64 nM	0.73 nM
B4	0.61 nM	0.6 nM

What follows are binders tested against T2, recombinant human IL4Rα-his protein (human, UniProt P24394 26-232, biotinylated in the capture ELISA and the benchmark blocking ELISA) (assay: SPR Biacore, mAb captured from supernatant, IL4Rα-his analyte).
T2 construct: also called biotinylated human IL4Rα-his protein

Binder	Kd	koff
B2	0.111 nM	4.04e-05 s⁻¹

The binders below were run against T2, recombinant human IL4Rα-his protein (assay: SPR Biacore, mAb captured, IL4Rα-his analyte).
Protocol: Briefly, a goat anti-human IgG (GE Healthcare, Cat. No. BR100839, Human Antibody Capture Kit) was covalently attached to a CMS chip (carboxymethylated dextran-coated chip) via the primary amine group using a standard amine coupling kit supplied by Biacore (GE Healthcare, Pittsburgh, PA, USA). Unreacted portions on the biosensor surface were blocked with ethanolamine. Then, the anti-IL4Rα antibody in the present disclosure at 66.67 nM and an anti-IL4Rα antibody benchmark (dupilumab, or DUPIXENT® or BM) at 10 μg/mL were directed through the chip at a flow rate of 10 μL/min. A recombinant human IL4Rα-his protein (prepared in-house, amino acid sequence set forth in SEQ ID NO: 15), a cynomolgus monkey IL4Rα-his protein (Sino Biological Inc., Cat. No. 90897-008H), or a marmoset monkey IL4Rα-his protein (customized product from Sino Biological Inc., denoted as cal-IL4Rα-his, amino acid sequence set forth in SEQ ID NO: 16) serially diluted with an HBS EP buffer (supplied by Biacore) was directed through the chip at a flow rate of 30 μIJmin. The antigen-antibody binding kinetics was tracked for 2 min and the dissociation kinetics was tracked for 10 min. The association and dissociation curves were fitted according to a 1:1 Langmuir binding model using BIA evaluation software, and the KD, Kₐ, and Kd values were determined.
According to the protocol in the examples above, the binding affinity of the humanized antibodies to human IL4Rα was assessed by the BIAcore technique, and the Kₐ, Kd, and KD values were determined and summarized in Table 3.

Binder	Dissociation (%)	End (RU)	Kd	Start (RU)	koff
B5	-0.59%				
B2	-1.94%	65.8 RU	< 0.0304 nM	67.1 RU	< 1e-05 s⁻¹
B6	0.2%				
B7	-1.54%				
B8	-0.2%				
B9	-1.23%				
B10	0.23%				
B11	0.82%				
B12	-0.42%				
B13	-1.88%				
B14	-2.28%				
B3	0.8%				
B15	-0.66%				
B16	-0.92%				
B4	0.29%				
B17	-0.24%				
B18	-0.62%				
